This assay concerns the target hnRNPK (human (endogenous in HeLa)) (UniProt P61978). Description: native gel or EMSA; blue native PAGE (4-13%) of the lhCLIP sample: HeLa cells UV-crosslinked, lysate immunoprecipitated with anti-hnRNPK, MNase digestion, pCp-biotin labelling, ligation, eluted from beads at 70°C for 10 min without reducing agents; blotted with anti-hnRNPK antibody. For orientation: A gel shift assay detects complexes by their altered migration in electrophoresis.

Usually stoichiometry N stands for the number of molecules, sites or subunits per partner or assembly. Regarding “hnRNPK, P61978 1-463 (natural protein; other documents disagree on this pair)”, the stoichiometry N was 2.

The values are drawn from PMC10635571.
